Measured values taken from US20220396825A1, “METHOD FOR PREPARING […]” (KAO CORPORATION, priority 2019, published 2022).

System: fragments of sample DNA (genomic DNA of TA100 strain)
Experiment: Error reduction by single-strand-specific nuclease treatment of DNA fragments (DMSO-exposed library)
Format: biochemical, Salmonella typhimurium
Protocol: From DNA derived from the DMSO-exposed cells or the 3-MC-exposed cells, a plurality of samples each of which was to give 60 ng or 100 ng of DNA were prepared, and the samples were each fragmented into pieces having a length of approximately 350 bp on average by using a DNA Shearing System ME220. The fragments of each sample were divided into two groups. For the group without nuclease treatment (nontreatment group), the DNA fragments were suspended in Resuspension buffer attached to the TruSeq for End Repair in the subsequent step in accordance with the recommended protocol to afford 60 μL of eluate. For the group with nuclease treatment (treatment group), the DNA fragments were purified through steps of adsorbing on Sample Purification Beads attached to the TruSeq (hereinafter, also expressed as beads, simply), washing twice with 80% ethanol water, and drying in accordance with the recommended protocol. In the subsequent elution operation, the beads were suspended in distilled water (DW, produced by NIPPON GENE CO., LTD.) to afford 30 μL of DNA eluate containing DNA fragments.
S1 nuclease (Promega Corporation, catalog No.: M5761), Mung Bean Nuclease (MBN) (Takara Bio Inc., catalog No.: 2420A), or RecJf (New England Biolabs, catalog No.: M0264L) was used as the single-strand-specific nuclease. The activity values (numbers of units) of the enzymes were defined as follows. • S1 nuclease: an enzymatic activity such that 1 μg of acid-soluble substance is generated per minute at 37° C. in a mixed solution of 30 mM sodium acetate (pH 4.6, 25° C.), 50 mM NaCl, 1 mM ZnCl2, 5% glycerol, and 0.5 mg/mL denatured calf thymus DNA was defined as 1 U. • MBN: an enzymatic activity such that 1 μg of acid-soluble decomposition product is generated per minute at 37° C. and pH 5.0 with thermally denatured calf thymus DNA as a substrate was defined as 1 U. • RecJf: an amount of the enzyme necessary for generating 0.5 ng of deoxyribonucleotide soluble in trichloroacetic acid per minute at 37° C. in 50 μL of whole reaction solution (containing 1×NE Buffer 2 and 1.5 μg of sonicated [^3H]-labeled single-stranded E. coli DNA) was defined as 1 U.
To the DNA eluate obtained in I), 4 μL of 10× Reaction Buffer attached to the S1 nuclease was added. The S1 nuclease was appropriately diluted with 1× Reaction Buffer, 1, 3, 10, 30, 100, or 300 U thereof was added to the DNA eluate, and DW was added thereto to a total volume of 40 μL. For the sample to which 1000 U of the S1 nuclease was to be added, 4.6 μL of 10× Reaction Buffer was added to 30 μL of the DNA eluate obtained by beads purification, and 12 μL of the stock solution of the S1 nuclease was added thereto to a total volume of 46 μL. Each reaction solution with the S1 nuclease was incubated at 30° C. for 30 minutes. Assuming that the whole amount of DNA (60 ng) present at the beginning of library preparation existed in each reaction solution, the numbers of units of the S1 nuclease per 1 ng of DNA were 0.02, 0.05, 0.17, 0.50, 1.67, 5.00, and 16.7 U/ng. For inactivation of the S1 nuclease in each reaction solution, 3 μL of 0.5 M EDTA (pH 8.0) (produced by NIPPON GENE CO., LTD.) was added, and the resultant was incubated at 70° C. for 10 minutes. To purify DNA from the inactivated reaction solution, beads attached to the TruSeq in an amount equal to that of the reaction solution were added and a purification operation was carried out in accordance with the recommended protocol, and the resultant was suspended in Resuspension buffer attached to the TruSeq to afford 60 μL of eluate (S1 nuclease treatment group). […]
To the DNA eluate obtained in I), 5 μL of 10×NE Buffer 2 attached to the RecJf was added. The RecJf was appropriately diluted with 1×NE Buffer 2, and 3, 10, 30, or 100 units thereof was added to the DNA eluate to a total volume of 50 μL. Each reaction solution with the RecJf was stirred, and incubated at 37° C. for 60 minutes. […]

B1: S1 nuclease: single-strand-specific endonuclease (Promega Corporation, catalog No.: M5761) (protein, UniProt P24021 21-287, looked up)
Nuclease S1: WGNLGHETVAYIAQSFVASSTESFCQNILGDDSTSYLANVATWADTYKYTDAGEFSKPYHFIDAQDNPPQSCGVDYDRDCGSAGCSISAIQNYTNILLESPNGSEALNALKFVVHIIGDIHQPLHDENLEAGGNGIDVTYDGETTNLHHIWDTNMPEEAAGGYSLSVAKTYADLLTERIKTGTYSSKKDSWTDGIDIKDPVSTSMIWAADANTYVCSTVLDDGLAYINSTDLSGEYYDKSQPVFEELIAKAGYRLAAWLDLIASQPS
S1 nuclease 0.02 U/ng
  Error reduction rate, GC to CG: 30.4%
S1 nuclease 0.02 U/ng DNA in reaction solution
  Error reduction rate, GC to TA: 52.8%
S1 nuclease 0.05 U/ng
  Error reduction rate, GC to CG: 50.6%
  Error reduction rate, GC to TA: 35.3%
S1 nuclease 0.17 U/ng
  Error reduction rate, GC to CG: 84.9%
  Error reduction rate, GC to TA: 83.1%
S1 nuclease 0.50 U/ng
  Error reduction rate, GC to CG: 87.5%
  Error reduction rate, GC to TA: 69.9%
S1 nuclease 1.67 U/ng
  Error reduction rate, GC to CG: 86.0%
  Error reduction rate, GC to TA: 81.7%
S1 nuclease 5.00 U/ng
  Error reduction rate, GC to CG: 98.3%
  Error reduction rate, GC to TA: 84.5%
S1 nuclease 16.7 U/ng
  Error reduction rate, GC to CG: 98.1%
  Error reduction rate, GC to TA: 79.6%
